Experimental findings from publication PMC5057122, “Arabidopsis aldehyde dehydrogenase 10 family members confer salt tolerance through putrescine-derived 4-aminobutyrate (GABA) production” (Scientific Reports, 2016) are described below.

One data set has as its target T1, AtALDH10A8 (Arabidopsis thaliana, UniProt Q9S795).
T1 construct: gene ALDH10A8
T1 sequence (Q9S795 1-501): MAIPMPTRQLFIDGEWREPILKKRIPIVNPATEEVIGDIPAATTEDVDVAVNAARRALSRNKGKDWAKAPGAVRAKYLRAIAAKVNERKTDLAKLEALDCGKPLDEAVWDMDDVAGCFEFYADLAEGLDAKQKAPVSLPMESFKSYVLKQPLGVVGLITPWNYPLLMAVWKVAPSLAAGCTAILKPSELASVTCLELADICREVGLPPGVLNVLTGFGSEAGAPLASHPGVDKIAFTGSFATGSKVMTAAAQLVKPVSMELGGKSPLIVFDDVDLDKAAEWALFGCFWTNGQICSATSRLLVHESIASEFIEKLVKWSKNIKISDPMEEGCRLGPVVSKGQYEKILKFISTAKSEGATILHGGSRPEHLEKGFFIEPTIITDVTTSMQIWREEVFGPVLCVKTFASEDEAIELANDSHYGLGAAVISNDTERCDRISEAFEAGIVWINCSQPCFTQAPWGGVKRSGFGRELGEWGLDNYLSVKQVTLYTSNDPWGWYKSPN
The data set is described as follows: NADH formation at […] nm, substrate-inhibition Michaelis-Menten fit. To be noted: substrate inhibition (partial); 100 μM NAD+, pH 8.5, room temperature; apparent. It is filed as biochemical.

A further data set addresses T2, AtALDH10A9 (Arabidopsis thaliana, UniProt Q9STS1).
T2 construct: gene ALDH10A9
T2 sequence (Q9STS1 1-503): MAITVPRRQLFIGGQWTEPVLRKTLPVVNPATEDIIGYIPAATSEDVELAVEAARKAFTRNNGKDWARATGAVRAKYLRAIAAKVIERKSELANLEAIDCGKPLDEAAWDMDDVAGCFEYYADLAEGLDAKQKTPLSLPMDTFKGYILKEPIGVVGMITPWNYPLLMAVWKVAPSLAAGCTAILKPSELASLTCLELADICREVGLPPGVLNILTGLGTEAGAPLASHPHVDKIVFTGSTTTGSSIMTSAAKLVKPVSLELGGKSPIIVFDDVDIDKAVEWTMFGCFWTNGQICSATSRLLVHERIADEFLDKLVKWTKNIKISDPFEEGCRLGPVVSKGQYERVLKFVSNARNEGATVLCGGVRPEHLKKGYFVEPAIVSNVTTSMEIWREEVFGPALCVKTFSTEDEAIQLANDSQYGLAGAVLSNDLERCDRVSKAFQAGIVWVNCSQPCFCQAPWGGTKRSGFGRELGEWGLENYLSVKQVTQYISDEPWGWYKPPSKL
The description is as above. To be noted: 500 μM NAD+, pH 9.5, room temperature, apparent. In kind it is biochemical.

Substrate in data set [1]: NCCC=O
Description: purified protein. It is filed as biochemical, Arabidopsis thaliana. To be noted: apparent.

Substrate in data set [2]: NCCCC=O
Description: purified protein. The following applies: apparent. In kind it is biochemical, Arabidopsis thaliana.

Substrate in data set [3]: NC(=O)c1ccc[n+]([C@@H]2O[C@H](COP(=O)(O)OP(=O)(O)OC[C@H]3O[C@@H](n4cnc5c(N)ncnc54)[C@H](O)[C@@H]3O)[C@@H](O)[C@H]2O)c1
Description: purified protein. In kind it is biochemical, Arabidopsis thaliana. To be noted: apparent, varied: cofactor.

[4] abbreviates: 500 μM NAD+, pH 9.5, room temperature.
[5] abbreviates: co-substrate 30 μM APAL (subsaturating), pH 9.5, room temperature.
[6] abbreviates: 100 μM NAD+, pH 8.5, room temperature.
Where [7] appears, read: co-substrate 7 μM APAL (subsaturating), pH 8.5, room temperature.

In the case of `NCCCC=O` [ABAL], the “AtALDH10A8 / Kis” value on AtALDH10A8 was determined as 55.7 ± 26.0 µM. For the same molecule, on AtALDH10A9, the “AtALDH10A9 / Kis” value was found to be 2600 ± 750 µM.
In the case of `NCCC=O` [APAL], the “AtALDH10A8 / Kis” value at AtALDH10A8 is 5.5 ± 0.3 µM. Further, on AtALDH10A9, the “AtALDH10A9 / Kis” value was determined as 19000 ± 5800 µM.

B1: AtALDH10A9 (Arabidopsis thaliana) (protein)
chain: T2 sequence (Q9STS1 1-503)
Broadly, the Km is the substrate concentration at which the rate is half of its maximum. Usually kcat/Km stands for the second-order rate constant that governs catalysis at low substrate concentration. As for B1, the Km was 17.3 ± 4.1 µM in the data set “purified protein [1]” (setting [4]), 460 ± 65 µM in “purified protein [2]” (setting [4]) and 86 ± 16 µM in “purified protein [3]” (setting [5]). In addition, the catalytic efficiency (kcat/Km) in “purified protein [1]” (setting [4]) amounted to 820000 M⁻¹ s⁻¹; in the data set “purified protein [2]” (setting [4]), 20000 M⁻¹ s⁻¹; in “purified protein [3]” (setting [5]), 150000 M⁻¹ s⁻¹.

B2: AtALDH10A8 (Arabidopsis thaliana) (protein)
chain: T1 sequence (Q9S795 1-501)
With B2, the Km in “purified protein [1]” (setting [6]) was found to be 14.4 ± 2.7 µM; in the data set “purified protein [2]” (setting [6]) it was 25.1 ± 2.5 µM; in “purified protein [3]” (setting [7]), 13.2 ± 1.5 µM. Moreover, the kcat/Km was 1.03e+06 M⁻¹ s⁻¹ in the data set “purified protein [1]” (setting [6]), 60000 M⁻¹ s⁻¹ in the data set “purified protein [2]” (setting [6]) and 260000 M⁻¹ s⁻¹ in the data set “purified protein [3]” (setting [7]).
